# Measured values reported in patent US20170114140A1 (Amgen, published 2017).
# Target: T1, human IL-17RA on cells (human PBMC; human foreskin fibroblasts) (human, UniProt Q96F46 33-866)
# Assay: cell-based or functional assay
"% Inhib. of IL-5 production (TSLP treated human PBMC + IL-2 + IL-25), Expt. 1","% Inhib. of IL-5 production (TSLP treated human PBMC + IL-2 + IL-25), Expt. 3","% Inhib. of IL-5 production (TSLP treated human PBMC + IL-2 + IL-25), Expt. 2",Binder
0%,0%,–,"2.23.1 (antibody, V domains shown) VH: QVQLVESGGGLVKPGGSLRLSCAASGFTFSDYYMSWIRQAPGKGLEWVSYISSSGSTIYYADSVKGRFTISRDNAKNSLYLQMNSLRAEDTAVYYCARDRTYYFGSGSYEGMDVWGQGTTVTVSS VL: EILMTQSPATLSVSPGERATLSCRASQSVYSNLAWYQQKPGQAPRLLISGASTRATGIPARFSGSGSGTEFTLTISSLQSEDFAVYYCQQYYNWPWTFGQGTKVEIK"
0%,9%,41%,"1.185.1 (antibody, V domains shown) VH: QVQLVESGGGVVQPGRSLRLSCAASGINFSSYGMHWVRQAPGKGLEWVAVIWYDGSNKHYADSVKGRFTISRDNSKNTLYLQMNSLRAEDTAVYYCARDTGVYWGQGTLVTVSS VL: not shown"
0%,0%,6%,"2.46.1 (antibody, V domains shown) VH: QVQLVQSGAEVKKPGASVKVSCKASGNTFTGYGISWVRQAPGQGLEWMGWISAYNGNTNYAQNLQGRVTMTTDTSTSTAYMELRSLRSDDTAVYYCARRDYDILTGYYNGFDPWGQGTLVTVSS VL: DIQMTQSPSSLSASVGDRVTITCRASQGIRNDLGWYQQKPGKAPKRLIYAASSLQSGVPSRFSGSGSGTEFTLTISSLQPEDFATYYCLQHKSYPLTFGGGTKVEIK"
0%,28%,16%,"2.133.1 (antibody, V domains shown) VH: QVQLQESGPGLVKPSETLSLTCTVSGGSISNYYWNWIRQSPGKGLEWIGDIYYSGSTNYNPSLKSRVTISVDTSKNQFSLKLSSVTTADTAVYYCARDGELANYYGSGSYQFYYYYGMDVWGQGTTVTVSS VL: DILMTQSPSSLSASVGDRVTITCRASQGIRNDLGWYQQKPGKAPKRLIYAASSLQSGVPSRFSGSGSGTEFTLTISSLQPEDFATYYCLQHNSNPFTFGPGTKVDIK"
0%,3%,13%,"2.67.1 (antibody, V domains shown) VH: QVQLVQSGAEVKKPGASVKVSCKASGYTLTRYGISWVRQAPGQGLEWMGWISAYNGNTNYAQKLQGRVTMTTDTSTSTAYMELRSLRSDDTAVYYCARRDYDILTGYYNGFDPWGQGTLVTVSS VL: DIQMTQSPSSLSASVGDRVTITCRASQGIRNDLGWYQQKPGKAPKRLIYAASSLQSGVPSRFSGSGSGTEFTLTISSLQPEDFATYYCLQHKSYPLTFGGGTKVEIK"
0%,0%,79%,"2.98.1 (antibody, V domains shown) VH: QVQLVQSGAEVKKPGASVKVSCKASGYTLTRYGISWVRQAPGQGLEWMGWISAYNGNTNYAQKLQGRVTMTTDTSTSTAYMELRSLRSDDTAVYYCARRDYDILTGYYNGFDPWGQGTLVTVSS VL: DIQMTQSPSSLSASVGDRVTITCRASQGIRNDLGWYQQKPGKAPKRLIYAASSLQSGVPSRFSGSGSGTEFTLTISSLQPEDFATYYCLQHKSYPLTFGGGTKVEIK"
0%,0%,–,"2.225.1 (antibody, V domains shown) VH: QVQLVQSGVEVKKPGASVKVSCKASGYTLTRYGISWVRQAPGQGLEWMGWISAYNGNTNYAQKLQGRVTMTTDTSTSTAYMELRSLRSDDTAVYYCARRDYDILTGYYNGFDPWGQGTLVTVSS VL: DIQMTQSPSSLSASVGDRVTITCRASQGIRNDLGWYQQKPGKAPKRLIYAASSLQSGVPSRFSGSGSGTEFTLTISSLQPEDFATYYCLQHKSYPLTFGGGTKVEIK"
–,100%,77%,"4.16.1 (antibody, IgG2, V domains shown) VH: QVQLVQSGAEVKKPGASVKVSCKASGYTLTSYGISWVRQAPGQGLEWMGWISAYSGNTKYAQKFQGRVTMTTDTSTSTAYMELRSLRSDDTAVYYCARRQLALDYWGQGTLVTVSS VL: EIVMTQSPATLSVSPGERATLSCRASQSISSNLAWYQQKPGQAPRLLIYGASTRATGIPARFSDNGSGTEFTLTISSLQSEDFAVYFCQQYDTWPLTFGGGTKVEIK"
28%,45%,72%,"4.393.1 (antibody, V domains shown) VH: QVQLVQSGAEVKKPGASVKVSCKASGYTFTSYGISWVRQAPGQGLEWMGWISAYNGNTKYAQKLQGRVTMTTDTSTSTVYMELRSLRSDDTAVYYCARKQLVFDYWGQGTLVTVSS VL: EIVMTQSPATLSVSPGERATLSCRASQSISTSLAWYQQKPGQAPRLLIYGTSTRATGIPARFSGSGSGTEFTLTISSLQSEDFAVYFCQQYDIWPLTFGGGTKVEIK"
0%,11%,–,"4.357.1 (antibody, V domains shown) VH: QVQLVQSGAEVKKPGASVKVSCKASGYTLTSYGISWVRQAPGQGLEWMGWISTYKGNTNYAQKLQGRVTMTTDTSTSTAYMELRSLRSDDTAVYYCARKQLVFDYWGQGTLVTVSS VL: EIVMTQSPATLSVSPGERATLSCRASQSISSSLAWYQQKPGQAPRLLIYGASTRATGIPARFSGSGSGTEFTLTISSLQSENFAVYYCQQYDNWPLTFGGGTKVEIK"
–,69%,–,"3.1404.1 (antibody, IgG2, V domains shown) VH: QVQLVQSGAEVKKPGASVKVSCKASGYTFTRYGISWVRQAPGQGLEWMGWISTYSGNTNYAQKLQGRVTMTTDTSTSTAYMELRSLRSDDTAVYYCARRQLYFDYWGQGTLVTVSS VL: EIVMTQSPATLSVSPGERATLSCRASQSVSSNLAWFQQKPGQAPRPLIYDASTRATGVPARFSGSGSGTDFTLTISSLQSEDFAVYYCQQYDNWPLTFGGGTKVEIK"
69%,74%,82%,"3.381.1 (antibody, IgG2, V domains shown) VH: QVQLVQSGAEVKKPGASVKVSCKASGYTFTRYGISWVRQAPGQGLEWMGWISAYSGNTNYAQKLQGRVTMTTDTSTSTAYMELRSLRSDDTAVYYCARRQLYFDYWGQGTLVTVSS VL: EIVMTQSPATLSVSPGERVTLSCRASQSVSSNLAWFQQKPGQAPRPLIYDASTRAAGIPARFSGSGSGTDFTLTISSLQSEDFAVYYCQQYDNWPLTFGGGTKVEIK"
0%,0%,43%,"3.1545.1 (antibody, V domains shown) VH: EVQLVESGGGSVQPGGSLRLSCAASGFTFSSYSMNWVRQAPGKGLEWVSIISSRSSIIHYADSVKGRFTISRDNAKNSLYLQMNSLRDEDTAVYYCARPKVGGGMDVWGQGTTVTVSS VL: DIQMTQSPSSLSASVGDRVTITCRASQGISNYLAWYQQKPGKFPELLIYAASTLQSGVPSRFSGSGSGTDFTLTISSLQPEDVATYYCQKYNRAPFTFGPGTKVDIK"

# Target: T2, IL-17RA.HIS (extracellular domain of human IL-17RA fused to a polyhistidine tag) (human, UniProt Q96F46 33-320)
# T2 construct: extracellular domain
# Assay: co-immunoprecipitation on Protein G beads, Western blot with anti-IL-17RA
row,binding result,Binder
1,binds,"IL-17RB.Fc (extracellular domain of human IL-17RB fused to the Fc region of human IgG) (Fc fusion, UniProt Q9NRM6 18-292, looked up, not shown: a dimerising Fc or GST, extracellular domain; also called HuIL-17RB: Fc) REPTVQCGSETGPSPEWMLQHDLIPGDLRDLRVEPVTTSVATGDYSILMNVSWVLRADASIRLLKATKICVTGKSNFQSYSCVRCNYTEAFQTQTRPSGGKWTFSYIGFPVELNTVYFIGAHNIPNANMNEDGPSMSVNFTSPGCLDHIMKYKKKCVKAGSLWDPNITACKKNEETVEVNFTTTPLGNRYMALIQHSTIIGFSQVFEPHQKKQTRASVVIPVTGDSEGATVQLTPYFPTCGSDCIRHKGTVVLCPQTGVPFPLDNNKSKPGGWLP"

# Target: T1, human IL-17RA on cells (human PBMC; …)
# Assay: cell-based or functional assay
# Remark: another data set of the same source
row,"% Inhibition of IL-5 production (TSLP treated human PBMC + IL-2 + IL-25), inhibitor 10 micrograms/mL",Binder
1,86%,"4.16.1 (antibody, IgG2, V domains shown) VH: QVQLVQSGAEVKKPGASVKVSCKASGYTLTSYGISWVRQAPGQGLEWMGWISAYSGNTKYAQKFQGRVTMTTDTSTSTAYMELRSLRSDDTAVYYCARRQLALDYWGQGTLVTVSS VL: EIVMTQSPATLSVSPGERATLSCRASQSISSNLAWYQQKPGQAPRLLIYGASTRATGIPARFSDNGSGTEFTLTISSLQSEDFAVYFCQQYDTWPLTFGGGTKVEIK"
2,100%,"3.381.1 (antibody, IgG2, V domains shown) VH: QVQLVQSGAEVKKPGASVKVSCKASGYTFTRYGISWVRQAPGQGLEWMGWISAYSGNTNYAQKLQGRVTMTTDTSTSTAYMELRSLRSDDTAVYYCARRQLYFDYWGQGTLVTVSS VL: EIVMTQSPATLSVSPGERVTLSCRASQSVSSNLAWFQQKPGQAPRPLIYDASTRAAGIPARFSGSGSGTDFTLTISSLQSEDFAVYYCQQYDNWPLTFGGGTKVEIK"
